Experimental findings from publication PMC10591298 are described below.

This series has as its target Lys119 (UniProt position 119, IPVLRKDFVVQ). The series can be described thus: kinetics. Conditions: 25 °C; 100 mM NaCl in MTEN buffer (said to have minimal change in ionic strength with pH); Steady-state turnover with CdRP (60 µM) above KM; enzyme 0.25-60 µM depending on variant.
As to “Indole-3-glycerol phosphate synthase (MtIGPS), wild type (Mycobacterium tuberculosis)”, the pKa (as a rule, the pH at which an ionisable group is half protonated) is given as 9.0 ± 0.1. “MtIGPS Glu57Asp (Mycobacterium tuberculosis; E57D)” displayed a pKa of 7.7 ± 0.1. In the case of “MtIGPS Glu219Asn (Mycobacterium tuberculosis; E219N)”, the pKa is given as 10.0 ± 0.2.

“MtIGPS Glu219Asp (Mycobacterium tuberculosis; E219D)” came in with a pKa of 7.6 ± 0.2.

As for “MtIGPS Glu219Gln (Mycobacterium tuberculosis; E219Q)”, the pKa turned out to be 9.9 ± 0.1.
